In patent publication US20100247589A1:

molecular target: tooth pellicle (thin film derived from salivary glycoproteins, formed in a human mouth) (human); assay: phage ELISA on pellicle-coated HAP disks, anti-M13-HRP; no-phage control 0.218

O.D.450 | Binder
0.755 | GNTDTTPPNAVMEPTVQHKW [Pell 9]
0.614 | QHCITERLHPPCTK [Pell 17]
0.75 | ASVSNYPPIHHLATSNTTVN [Pell 2]
0.598 | NNTWPEGAGHTMPSTNIRQA [Pell 13]
0.578 | NPTDSTHMMHARNHE [Pell 16]
0.739 | AHPESLGIKYALDGNSDPHA [Pell 1]
0.712 | EPTHPTMRAQMHQSLRSSSP [Pell 8]
0.567 | NPTDHIPANSTNSRVSKGNT [Pell 15]
0.521 | NNTSADNPPETDSKHHLSMS [Pell 12]
0.715 | WCTDFCTRSTPTSTSRSTTS [Pell 20]
0.831 | DPNESNYENATTVSQPTRHL [Pell 7]
0.664 | DECMHGSDVEFCTS [Pell 4]
0.83 | DLCSMQMMNTGCHY [Pell 5]
0.607 | NGPEVRQIPANFEKL [Pell 11]
0.416 | TPCAPASFNPHCSR [Pell 18]
0.729 | NGPDMVQSVGKHKNS [Pell 10]
0.49 | DECMEPLNAAHCWR [Pell 3]
0.731 | TPCATYPHFSGCRA [Pell 19]
0.735 | DLCSSPSTWGSCIR [Pell 6]
0.7 | NPTATPHMKDPMHSNAHSSA [Pell 14]

molecular target: tooth pellicle (thin film derived from salivary glycoproteins, formed in a human mouth) (human); assay: phage ELISA on pellicle-coated bovine enamel, anti-M13-HRP, normalized to internal control

O.D.450 (normalized) | Binder
0.979 | SNATMYNIQSHSHHQ [DenP24]
1 | NGNNHTDIPNRSSYTGGSFA [DenP1]
1.95 | TMTNHVYNSYTEKHSSTHRS [DenP2]
1.24 | HDPNHLTHQARTIYRNANHT [DenP23]
2.19 | GPQHVLMQDTHQGYAFDN [DenP16]
1.36 | HKNAIQPVNDATTLDTTM [DenP9]
1.42 | IYPNESMSTSNVRGPYHP [DenP22]
0.728 | DHNNRQHAVEVRENKTHTAR [DenP21]
0.976 | QVPDYLSPTHQKKAFLEIPT [DenP29]
1.5 | EFPYYNDNPPNPERHTLR [DenP7]
2.08 | FDGIGLGTATRHQNR [DenP12]
1.11 | ELDHDSRHYMNGLQRKVT [DenP15]
1.08 | TNDLHANPFTGTYIAPDPTS [DenP30]
1.09 | YLLPKDQTTAPQVTPIVQHK [DenP5]
0.845 | QAAQVHMMQHSRPTT [DenP13]
1.44 | HKNENIMQYNVNDRWHITPA [DenP32]
1.14 | KAPIANMLQPHSYQYSVA [DenP18]
0.909 | ANELSTYAQTNPGSG [DenP25]
1.2 | APPTYQTASYPHNLPSKRKM [DenP28]
0.971 | TTGSSSQADTSASMSIVPAH [DenP17]
1.04 | DTIHPNKMKSPSSPL [DenP26]
1 | IPWWNIRAPLNAGGG [Control (SEQ ID NO: 95)]
1.66 | DLGTFPNRTLKMAAH [DenP11]
1.05 | TYQGVPSWPAVIDDAIRR [DenP19]
1.42 | VEPATKNMREARSSTQMRRI [DenP4]
1.62 | AVVPADLNDHANHLS [DenP10]
1.18 | GMPTRYYHNTPPHLTPKF [DenP8]
1.3 | VNPNWVETQALHQPPGNT [DenP20]
2.5 | SEARARTFNDHTTPMPII [DenP14]
